Laboratory results published in the supplement of paper PMC6379048.

How the values were obtained:
Assay in all cases: EC50 of free RNA motif oligo competing protein binding to immobilised probe
RPS10 = RPS10 (UniProt P46783)
Procedure, shortened: (§1)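 HEK293-FT lysate (2.5 mg protein/well) was treated with free RNA oligos (0 nM to 30 μM) for 1 h at 4°C, then with the same oligos on NHS-Sepharose beads for 30 min at 4°C. Bound proteins were quantified by label-free LC-MS/MS relative to the control. EC50 came from a four-parameter log-logistic fit, and Kd is EC50 times a protein-dependent depletion factor.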

CPSF7 = target: T1, CPSF7 (UniProt Q8N684)
T1 sequence: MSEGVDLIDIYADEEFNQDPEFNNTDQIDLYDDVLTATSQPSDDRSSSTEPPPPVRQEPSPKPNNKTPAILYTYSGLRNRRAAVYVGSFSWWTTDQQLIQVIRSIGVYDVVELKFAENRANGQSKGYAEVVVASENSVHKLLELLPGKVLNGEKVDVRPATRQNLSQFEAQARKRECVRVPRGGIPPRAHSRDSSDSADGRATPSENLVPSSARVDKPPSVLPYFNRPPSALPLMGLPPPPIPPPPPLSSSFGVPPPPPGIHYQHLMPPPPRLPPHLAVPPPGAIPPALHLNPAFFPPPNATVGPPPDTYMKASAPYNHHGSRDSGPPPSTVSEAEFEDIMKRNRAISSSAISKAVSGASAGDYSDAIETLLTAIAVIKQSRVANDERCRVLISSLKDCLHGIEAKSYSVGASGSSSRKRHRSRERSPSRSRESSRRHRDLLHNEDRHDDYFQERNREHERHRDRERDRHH
Procedure, shortened: as §1

MCM4 = target: T2, MCM4 (UniProt P33991)
T2 sequence: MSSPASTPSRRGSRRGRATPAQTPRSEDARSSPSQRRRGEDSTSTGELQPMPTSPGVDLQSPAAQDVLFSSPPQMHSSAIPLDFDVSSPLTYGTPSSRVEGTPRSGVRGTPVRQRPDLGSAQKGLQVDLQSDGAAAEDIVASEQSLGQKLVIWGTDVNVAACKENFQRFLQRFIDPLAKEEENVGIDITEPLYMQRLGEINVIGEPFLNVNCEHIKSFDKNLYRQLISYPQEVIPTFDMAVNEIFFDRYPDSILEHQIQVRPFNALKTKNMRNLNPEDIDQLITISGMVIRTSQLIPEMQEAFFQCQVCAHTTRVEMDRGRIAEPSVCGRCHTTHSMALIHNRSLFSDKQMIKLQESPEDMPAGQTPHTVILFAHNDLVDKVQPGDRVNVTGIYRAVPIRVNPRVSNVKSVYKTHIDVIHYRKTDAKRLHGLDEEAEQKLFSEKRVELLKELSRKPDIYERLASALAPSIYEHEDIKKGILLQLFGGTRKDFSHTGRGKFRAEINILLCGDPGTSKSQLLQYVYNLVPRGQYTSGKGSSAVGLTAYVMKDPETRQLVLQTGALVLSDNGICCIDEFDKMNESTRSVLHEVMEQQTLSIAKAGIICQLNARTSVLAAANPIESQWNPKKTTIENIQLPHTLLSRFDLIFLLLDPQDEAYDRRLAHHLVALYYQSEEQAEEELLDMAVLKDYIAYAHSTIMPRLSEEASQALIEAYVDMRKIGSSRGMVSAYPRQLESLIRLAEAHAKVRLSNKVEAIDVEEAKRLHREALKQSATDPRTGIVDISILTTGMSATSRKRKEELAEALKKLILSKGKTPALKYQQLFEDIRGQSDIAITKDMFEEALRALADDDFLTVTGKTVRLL
Procedure, shortened: as §1

SRSF10 = SRSF10 (UniProt O75494)
Sequence of SRSF10 (O75494 whole entry): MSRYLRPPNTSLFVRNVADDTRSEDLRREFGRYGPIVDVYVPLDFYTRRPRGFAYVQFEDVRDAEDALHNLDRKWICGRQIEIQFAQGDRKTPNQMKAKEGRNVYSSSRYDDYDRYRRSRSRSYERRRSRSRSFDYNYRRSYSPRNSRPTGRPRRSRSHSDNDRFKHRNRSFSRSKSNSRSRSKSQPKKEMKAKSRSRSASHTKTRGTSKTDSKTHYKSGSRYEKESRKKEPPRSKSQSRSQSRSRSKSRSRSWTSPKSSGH
Procedure, shortened: as §1

MEX3C = target: T3, MEX3C (UniProt Q5U5Q3)
T3 sequence: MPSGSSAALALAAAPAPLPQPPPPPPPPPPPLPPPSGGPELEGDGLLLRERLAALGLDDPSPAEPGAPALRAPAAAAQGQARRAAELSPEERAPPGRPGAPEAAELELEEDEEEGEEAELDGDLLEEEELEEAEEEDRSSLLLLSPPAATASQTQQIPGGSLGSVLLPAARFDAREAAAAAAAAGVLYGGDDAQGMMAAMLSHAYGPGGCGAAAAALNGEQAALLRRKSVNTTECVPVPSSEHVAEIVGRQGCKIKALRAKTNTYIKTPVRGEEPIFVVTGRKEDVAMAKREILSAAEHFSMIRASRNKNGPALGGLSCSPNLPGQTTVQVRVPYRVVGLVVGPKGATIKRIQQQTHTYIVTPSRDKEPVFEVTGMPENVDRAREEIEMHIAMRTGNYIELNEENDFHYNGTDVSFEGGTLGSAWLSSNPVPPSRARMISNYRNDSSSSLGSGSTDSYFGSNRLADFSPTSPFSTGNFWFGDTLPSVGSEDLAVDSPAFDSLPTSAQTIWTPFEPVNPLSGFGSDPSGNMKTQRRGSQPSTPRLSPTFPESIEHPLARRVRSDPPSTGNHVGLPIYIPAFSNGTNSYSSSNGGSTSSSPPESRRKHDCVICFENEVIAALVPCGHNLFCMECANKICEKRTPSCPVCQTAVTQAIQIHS
Procedure, shortened: as §1

MRPS28 = MRPS28 (UniProt Q9Y2Q9)
Procedure, shortened: as §1

MRPS31 = MRPS31 (UniProt Q92665)
Procedure, shortened: as §1

CUGUCCU gave an EC50 (RPS10) of 226 nM.

AAUAAA gave an EC50 (CPSF7) of 8.82 µM, an EC50 (MCM4) of 50 nM and an EC50 (SRSF10) of 1150 nM.

UAUUUAU was tested, and the EC50 (MEX3C) was 799 nM, the EC50 (MRPS28) was 56.1 nM and the EC50 (MRPS31) was 93.7 nM.
